According to US20220387586A1 (Hoffmann-La Roche, published 2022):

Columns and labels:
biotinylated-Lag3 [1] = molecular target: T1, biotinylated-Lag3 (UniProt P18627 23-450, limits assumed, biotinylated); test: ELISA, inhibition of biotinylated-Lag3 binding to MHC-II on A375 cells (competitor MHC-II); second of two numbers; second of two series in the cell (the series of '/0.4' and '/1.0')
T1 construct: Probably a human LAG3 ECD construct; also called Lag3 (MHCII/ELISA)
T1 sequence (looked up): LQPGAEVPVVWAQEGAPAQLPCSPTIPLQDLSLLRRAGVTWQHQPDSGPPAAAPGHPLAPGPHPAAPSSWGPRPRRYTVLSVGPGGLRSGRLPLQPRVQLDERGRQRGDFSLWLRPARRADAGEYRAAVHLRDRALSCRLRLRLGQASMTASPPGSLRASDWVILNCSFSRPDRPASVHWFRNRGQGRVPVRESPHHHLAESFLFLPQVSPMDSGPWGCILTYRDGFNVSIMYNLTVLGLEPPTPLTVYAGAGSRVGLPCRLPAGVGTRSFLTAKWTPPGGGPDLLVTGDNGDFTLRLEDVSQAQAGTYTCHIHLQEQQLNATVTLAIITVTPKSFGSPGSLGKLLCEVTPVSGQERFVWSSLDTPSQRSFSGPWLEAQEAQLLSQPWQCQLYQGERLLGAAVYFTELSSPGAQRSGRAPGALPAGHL

[2] = molecular target: T2, human Fc tagged human Lag3 extra cellular domain (human, UniProt P18627 29-450, biotinylated in the epitope binning, the SA CAP SPR and the FACS competition assay); test: FACS, inhibition of biotinylated Lag3:Fc binding to MHC-II on A375 cells (competitor MHC-II); antibody 10 µg/ml
T2 construct: In-house fusion; also called huLag3-Fc; biotinylated, huFc-tagged huLag3; not shown: human Fc tag
T2 sequence: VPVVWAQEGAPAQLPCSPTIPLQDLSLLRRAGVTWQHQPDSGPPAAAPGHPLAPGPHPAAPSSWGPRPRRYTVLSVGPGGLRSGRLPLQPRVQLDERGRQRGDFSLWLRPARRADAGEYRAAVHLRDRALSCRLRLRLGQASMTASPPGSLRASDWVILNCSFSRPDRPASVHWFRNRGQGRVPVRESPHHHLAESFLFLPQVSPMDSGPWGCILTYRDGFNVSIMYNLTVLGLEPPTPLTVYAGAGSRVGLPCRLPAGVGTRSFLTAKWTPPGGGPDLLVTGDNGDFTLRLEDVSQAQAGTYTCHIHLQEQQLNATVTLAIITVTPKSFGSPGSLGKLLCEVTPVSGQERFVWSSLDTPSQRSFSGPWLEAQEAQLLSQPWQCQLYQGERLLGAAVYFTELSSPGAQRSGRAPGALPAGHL
Description: This analysis was studied in a FACS competition experiment: A375 cells (ATCC, #CRL-1619) were cultured for 2-3 passages in EM Eagle's medium supplemented with EBSS (PAN, cat.no. #P04-00509), 10% FBS, 2 mM L-Glutamin, 1×NEAA and 1× Sodium Pyruvate. All antibodies, were diluted in FACS buffer to a final concentration of 20 μg/ml in 25 μl (in 96well U-bottom plates). […] A375 cells were washed with PBS and adjusted to 3×10⁶ cells/ml in PBS. 100 μl were seeded per well in a 96well V-bottom plate. Plates were centrifuged and supernatant was removed. […] After this, cells were washed with 200 μl FACS buffer. […] After staining, cells were again washed and then transferred in 150 μl FACS buffer (PBS/2% FBS) to a U-bottom plate and analyzed on a FACS Canto-II using an HTS module.
All antibodies were used at 10 μg/ml final concentration.

cynomolgus LAG3 on cells [3] = molecular target: T3, cynomolgus LAG3 on cells (cynomolgus); test: flow cytometry on activated cynomolgus PBMC, 10 µg/ml (only 2nd Ab (hu): 7.62)
T3 construct: whole, on cells; also called cyno-LAG-3; cynoLAG3
Description: Thus, cynomolgus peripheral blood mononuclear cells (PBMC) were prepared from fresh cynomolgus blood and were then activated by CD3/CD28 pre-treatment (1 μg/ml) for 2-3 days. […] After staining, cells were washed two times with PBS/2% FCS and analyzed on a FACS Fortessa (BD).

biotinylated-Lag3 [4] = molecular target: T1, biotinylated-Lag3; test: ELISA, inhibition of biotinylated-Lag3 binding to MHC-II on A375 cells (competitor MHC-II); first of two numbers; first of two series in the cell
[5] = molecular target: T4, LAG3 on cells (recombinant CHO cells expressing Lag3) (human, UniProt P18627 29-525); test: cell-based or functional assay
T4 sequence: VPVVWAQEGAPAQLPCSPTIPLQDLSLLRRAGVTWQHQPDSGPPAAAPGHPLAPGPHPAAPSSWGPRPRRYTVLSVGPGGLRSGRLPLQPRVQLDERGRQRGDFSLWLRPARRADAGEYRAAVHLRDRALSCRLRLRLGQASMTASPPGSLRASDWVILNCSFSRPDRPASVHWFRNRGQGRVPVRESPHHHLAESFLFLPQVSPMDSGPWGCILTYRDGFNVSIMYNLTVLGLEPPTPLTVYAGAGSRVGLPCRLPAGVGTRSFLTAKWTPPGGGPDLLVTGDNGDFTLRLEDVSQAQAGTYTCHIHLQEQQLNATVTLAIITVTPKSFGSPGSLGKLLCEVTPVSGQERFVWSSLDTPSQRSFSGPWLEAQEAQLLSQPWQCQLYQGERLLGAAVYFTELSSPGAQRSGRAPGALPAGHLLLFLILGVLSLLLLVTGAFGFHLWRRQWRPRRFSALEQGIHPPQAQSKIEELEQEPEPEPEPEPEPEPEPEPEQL

cynomolgus LAG3 on cells [6] = molecular target: T3, cynomolgus LAG3 on cells; test: flow cytometry on HEK293F cells transfected with cyno-LAG-3, antibody 10 µg/ml
Description: 1.5×10⁵ cells/well were seeded into 96-well plates. […] HEK cells were incubated with indicated antibodies for 45 min on ice, washed twice with 200 μl ice-cold PBS buffer containing 2% FBS, before secondary antibody (APC-labelled goat anti-human IgG-kappa, Invitrogen, cat.no. #MH10515) was added (1:50 diluted in FACS-Puffer/well) and further incubated for 30 min on ice. Cells were again washed twice with 200 μl ice-cold PBS/2% FBS buffer before samples were finally resuspended in 150 μl FACS buffer and binding was measured on FACS CANTO-II HTS Module.

[7] = molecular target: T4, LAG3 on cells (recombinant CHO cells …); test: cell ELISA on recombinant CHO cells expressing Lag3
Description: After washing (1×90 μl in PBST) cells were fixed by addition of 30 μl/well glutaraldehyde to a final concentration of 0.05% (Sigma Cat.No: G5882), 10 min at room temperature. After washing (3×90 μl/well with PBST-buffer) 25 μl/well goat anti-Human Ig κ chain antibody-HRP conjugate (Milipore, AP502P) was added in a 1:1000 dilution and incubated at RT for 1 h. After washing (3×90 μl/well with PBST-buffer) 25 μl/well TMB substrate (Roche, 11835033001) was added and incubated for 6-10 min. Measurement took place on a Tecan Safire 2 instrument at 370/492 nm.

B1: Reference LAG3 antibody MDX25F7 (antibody, V domains shown)
VH: QVQLQQWGAGLLKPSETLSLTCAVYGGSFSDYYWNWIRQPPGKGLEWIGEINHNGNTNSNPSLKSRVTLSLDTSKNQFSLKLRSVTAADTAVYYCAFGYSDYEYNWFDPWGQGTLVTVSS
VL: EIVLTQSPATLSLSPGERATLSCRASQSISSYLAWYQQKPGQAPRLLIYDASNRATGIPARFSGSGSGTDFTLTISSLEPEDFAVYYCQQRSNWPLTFGQGTNLEIK
notes: also called MDX-25F7 (25F7); Medarex 25F7
IC50 (biotinylated-Lag3 [1]): 0.6 nM | % Inhibition [2]: 70% | % positive cyno cells (PBLs) after CD3/CD28 activation (cynomolgus LAG3 on cells [3]): 22.1% | IC50 (biotinylated-Lag3 [4]): 0.8 nM | EC50 [nM] in Jurkat LAG3 + SED + Raji (NFAT luciferase), 2nd assay [5]: 8.6 nM | % pos. (cynomolgus LAG3 on cells [6]): 41.2% | GeoMean (cynomolgus LAG3 on cells [6]): 3060 | CHO-cell ELISA inflexion point [7]: 75 ng/mL
